From the DeepSol protein solubility set

test: soluble on expression in E. coli; label from the status in PepcDB or PDB records

Sequence	soluble on expression in E. coli
MAHHHHHHMEPSVKESVSRIPLLKTKAGPRDGDKWTARLKEEYASLITYVEHNKASDSHWFHLESNPQGTRWYGTCWTYYKNEKYEFEMNFDIPVTYPQAPPEIALPELEGKTVKMYRGGKICMTTHFFPLWARNVPYFGISHVLALGLGPWLSIEVPAIVEEGYLKPASAATVPTTGE	soluble
AMVSVSGIRKVQRAEGPATVLAIGTANPPNCVDQSTYADYYFRVTNSEHMTDLKKKFQRICERTQIKNRHMYLTEEILKENPNMCAYKAPSLDAREDMMIREVPRVGKEAATKAIKEWGQPMSKITHLIFCTTSGVALPGVDYELIVLLGLDPSVKRYMMYHQGCFAGGTVLRLAKDLAENNKDARVLIVCSENTSVTFRGPSETDMDSLVGQALFADGAAAIIIGSDPVPEVENPLFEIVSTDQQLVPNSHGAIGGLLREVGLTFYLNKSVPDIISQNINDALSKAFDPLGISDYNSIFWIAHPGGRAILDQVEEKVNLKPEKMKATRDVLSNYGNMSSACVFFIMDLMRKKSLEAGLKTTGEGLDWGVLFGFGPGLTIETVVLRSMAI	soluble
MGSDKIHHHHHHMWYKNNSFRFTRRFFMRVRVSAVFEQAGEILCMKYIYGGKEVFALPGGGVDKDIPLQEAIVNEWKEELGIKVDIGDIILIGEAPAGKRHPQTLHVVFEAREIRGTPKVRSDATHSLDVAWVPLEKLSSLPLYPDVGKQLSASFSEEPRRSVAFISNCMERGYW	not soluble
SPLELELCPGRWVGGQHPCFIIAEIGQNHQGDLDVAKRMIRMAKECGADCAKFQKSELEFKFNRKALDRPYTSKHSWGKTYGEHKRHLEFSHDQYRELQRYAEEVGIFFTASGMDEMAVEFLHELNVPFFKVGSGDTNNFPYLEKTAKKGRPMVISSGMQSMDTMKQVYQIVKPLNPNFCFLQCTSAYPLQPEDVNLRVISEYQKLFPDIPIGYSGHETGIAISVAAVALGAKVLERHITLDKTWKGSDHSASLEPGELAELVRSVRLVERALGSPTKQLLPCEMACNEKLGKSVVAKVKIPEGTILTMDMLTVKVGEPKGYPPEDIFNLVGKKVLVTVEEDDTIMEELVDNHGKKIKS	soluble
SARKSNLPVLLVPFLLCQALVRCSSPLPLVVNTWPFKNATEAAWRALASGGSALDAVESGCAMCEREQCDGSVGFGGSPDELGETTLDAMIMDGTTMDVGAVGDLRRIKNAIGVARKVLEHTTHTLLVGESATTFAQSMGFINEDLSTSASQALHSDWLARNCQPNYWRNVIPDPSKYCGPYKPPGILKQDIPIHKETEDDRGHDTIGMVVIHKTGHIAAGTSTNGIKFKIHGRVGDSPIPGAGAYADDTAGAAAATGNGDILMRFLPSYQAVEYMRRGEDPTIACQKVISRIQKHFPEFFGAVICANVTGSYGAACNKLSTFTQFSFMVYNSEKNQPTEEKVDCI	soluble
SDSPEQESADDALKRIVDGFQHFRREVFPEQQALFKKLANSQRPRAMFITCADSRIVPELITQSSPGDLFVTRNVGNVVPPYGQMNGGVSTAIEYAVLALGVHHIIVCGHSDCGAMRAVLDPQTLERMPTVKAWLRHAEVARTVVADNCDCGASHDTLGVLTEENVVAQLDHLRTHPSVASRLASGQLFIHGWVYDIESAQIRAYDAKQGRFLPLDGEHPVPMATPAPRYLSS	not soluble
MAEFKEQVLDILEEVCENDIVKENLDVQLFEEGILDSFAVVSLLVEFQERLDIEVSISDFDRDEWATPNMVIKKLEEIR	not soluble
MAHHHHHHMSIIHYSLQYNCKSFCIFTYFLIPSYWKCSTYNIPQYRSQNKNNFISFCIQFLVQQCVLIIHKVFNLPNTSLRNYFPQINKQINNQTFLNVVVKRKLNHGKLWGAHV	soluble
MSESFAELFEESLKSLDMQPGAIITGIVVDIDGDWVTVHAGLKSEGVIPVEQFYNEQGELTIKVGDEVHVALDAVEDGFGETKLSREKAKRAESWIVLEAAFAADEVVKGVINGKVKGGFTVDVNGIRAFLPGSLVDVRPVRDTTHLEGKELEFKVIKLDQKRNNVVVSRRSVLEAENSAEREALLESLQEGQQVKGIVKNLTDYGAFVDLGGVDGLLHITDMAWKRIKHPSEIVNVGDEIDVKVLKFDRERNRVSLGLKQLGEDPWVAIKARYPEGTRVMARVTNLTDYGCFAELEEGVEGLVHVSEMDWTNKNIHPSKVVQVGDEVEVQVLDIDEERRRISLGIKQCKSNPWEDFSSQFNKGDRISGTIKSITDFGIFIGLDGGIDGLVHLSDISWNEVGEEAVRRFKKGDELETVILSVDPERERISLGIKQLEDDPFSNYASLHEKGSIVRGTVKEVDAKGAVISLGDDIEGILKASEISRDRVEDARNVLKEGEEVEAKIISIDRKSRVISLSVKSKDVDDEKDAMKELRKQEVESAGPTTIGDLIRAQMENQGLEHHHHHH	soluble
MGSDKIHHHHHHMGFEMTRGHLTWNDFKIVMAIANAGSLSGAARSLGVNHATVFRRLGDIERRLGVALFERSRKGYKPSLAGEELANTARIMDEAAHSAERKVAGRDLRPSGEIWVTTTDSLLMGLLAPLFKEFRNRYPDIVLDVAVANEMLNLTRREADVGIRPVNRPPENLIGRRLATVGQAIFGHRNLGLDKGQSIDFLSQQPWIGAGPRLQDSVLEQWMAQKNLADACVFRVDTLVGLLSAVNEGLGLAALPCYLAETCPDIVQLSDPIPELNYDLRKPLKVATHST	not soluble
MPKNRGVLDAITRSVIDGSDQESSSSFNSDKEYAAVTKGLSSSRVQKKSSLRQMKSKVKELQSLVNHYRENEAALVSSAKLLSGEIIGYEIKMASLHGKMKSILDENNALKETHKSSAEKRIELVRLPSSKEERNYDEYTLLVNLKKEICAKLQDYKNVQNTVNTKLDEIHTFHEKYYEGLELSLDSKVFDAESSKELAKVRRELNNVRKNSEIKVNNLKMQLLQATKSLEHLKKQAKAKDDYLKCIPELVDKANLTMLSYKKSIANQRETIEALQAELSQQSETKGQIETETQNQVQIPTNVTLVDPFEENNPEDLFAIQEQELQDLRLHKKMADERSRTTHLHLERKNNTIKLLQSYVQSLIQRLPPAQRKHHLGIFQKLGSEKSCPLAPAVASTYAPLLLLSQHSNHQEIDNTPQRLLLAAPDGQSYSEKSTTLNLDYSSRKSYLSRLQPPHIANLKSLTLKTLPRVPTDSPQLPSKDKSQETAKKDDRPKLVANEPVTLDTSTPPVAQSLADSKHCSGLHK	not soluble
MAVKKIAIFGATGQTGLTTLAQAVQAGYEVTVLVRDSSRLPSEGPRPAHVVVGDVLQAADVDKTVAGQDAVIVLLGTRNDLSPTTVMSEGARNIVAAMKAHGVDKVVACTSAFLLWDPTKVPPRLQAVTDDHIRMHKVLRESGLKYVAVMPPHIGDQPLTGAYTVTLDGRGPSRVISKHDLGHFMLRCLTTDEYDGHSTYPSHQYQ	soluble
MGSDKIHHHHHHMNPPPFRLFLAIRSLHKGGAERQMVELAKGLDKERFALTLCTLYGGGELERELKESGVEIFCLHKRGRSDFSFLRRYRTLIQEQNPKAIYSFLPEMNLFSLMASRFLKRSPKILWGFRSSDMDVKSYGWQSRLYYAAQKLLSPFASKIITNSHHSLAYHKHIGYCMKRAQVIHNGIDTKRFSPSLELRESFRQRYHLKDKIAIGIAARMDIAKGYPYLAKAAKIILSRYPKVLFFAAGEIDPLLQKECLEILGQEGERFIWLGGVERMEEVYNGWDILVSSSLTESFSNSIAEGMACALAPIATDVGDTSVILGEVGTLIPPKDSEMLAQKLALMIESDFKTEGERARERIVTLFSLEAMIQNSTKAILTCAES	not soluble
METASITEWTFVQEVPIPEDVANLMVPGEDAVVAFKTFRDSAIFTTKRLIVRDSQGLRGKKVEVYSLPYSSVNMWSTENAGTFDFNAEVELWTRAGKIKIKIGRDLDVRRLDMLLAQCILG	not soluble
MGQQLLSHQSVSSQWLANQSATSTLPLLDLSLLSGSDTERQAFLTALRHAARDVGFFYLTGHGIDTSLLRQIQILSRQFFALSDEEKLSIAMIRSPHFRGYNRAASEFTRGQPDWREQFDIGAERTPLPQIAGAPSWTRLQGPNQWPTALPELKPVLLQWQEEMTRMSLRLLRAFALALDLDEQAFDALYGDKPNEHIKLIRYPGREATQSGQGVGAHKDSGFLSFLLQDTQRGLQVEVEEGQWIDAVPREGTFVVNIGELLELASNGYLRATVHRVETPPAGIDRLSIAFFLGARLDAVVPLYPLSAALAAEARGPASDPHNPLFRDVGLNYLKGRLRSHPDVAERYYSDALCS	not soluble
